Data published in paper doi:10.1101/2023.05.09.540094.

B1: ZFAND5/ZNF216, recombinant wild type (natural protein)
chain: MAQETNQTPGPMLCSTGCGFYGNPRTNGMCSVCYKEHLQRQQNSGRMSPMGTASGSNSPTSDSASVQRADTSLNNCEGAAGSTSEKSRNVPVAALPVTQQMTEMSISREDKITTPKTEVSEPVVTQPSPSVSQPSTSQSEEKAPELPKPKKNRCFMCRKKVGLTGFDCRCGNLFCGLHRYSDKHNCPYDYKAEAAAKIRKENPVVVAEKIQRI
B2: His6-SNAP-ZFAND5wt (natural protein)
chain: B1 chain
modifications: SNAP tag labelled with SNAP-Surface 649 (fluorescent form) or with SNAP-Biotin (immobilised form)

Experiments:
[1] = target: human 26S proteasome (human | human (endogenous in HEK293)) (UniProt O00487)
[2] = target: human 26S proteasome (human | human (endogenous in HEK293)) (UniProt O00487); remark: listed apart in the source
[3] = target: human 26S proteasome (human | human (endogenous in HEK293)) (UniProt O00487); assay: single-molecule TIRF microscopy

Binder | increase of the initial (phase I) degradation rate of ubiquitylated cycB-cpGFP [1] | increase of the late (phase II) degradation rate of ubiquitylated cycB-cpGFP [1] | stimulation of peptide hydrolysis of purified 26S proteasome [2] | dwell-time constant, first (short-binding) exponential mode [3] | dwell-time constant, second (long-binding) exponential mode [3]
B1 | 24% | 71% | < 10 fold | – | –
B2 | – | – | – | 50 ms | 614 ms
